The numbers were not newly measured in patent US5576301A, “Low molecular growth potentiating peptides” (The Penn State Research Foundation, priority 1994, dated 1996), which cites them from elsewhere.

For data set [1], the system named is tibial growth plate of hypophysectomized rats. Particulars: hormone standard.
For data set [2] the following is noted: comparison values.
The test system of data set [3] is patients. As to conditions: patients treated with recombinant hGH.

For the molecule “Kabi hGH standard: human growth hormone standard obtained from Kabi Vitrum, Sweden”, the “potency of GH standard preparation” value in data set [1] is 3.0 IU/mg protein.
As to “human monomeric growth hormone: monomeric 22K human growth hormone”, in data set [2], the pI was 5.1-5.6.
Consider “recombinant form of hGH: recombinant human growth hormone used in the United States to treat patients”, for which the “patients treated that develop circulating antibodies” value in data set [3] is 20~30%.

B1: USDA bovine GH preparation: bovine growth hormone standard used in the tibial line bioassay (protein, UniProt P01246 27-217, looked up)
Somatotropin: AFPAMSLSGLFANAVLRAQHLHQLAADTFKEFERTYIPEGQRYSIQNTQVAFCFSETIPAPTGKNEAQQKSDLELLRISLLLIQSWLGPLQFLSRVFTNSLVFGTSDRVYEKLKDLEEGILALMRELEDGTPRAGQILKQTYDKFDTNMRSDDALLKNYGLLSCFRKDLHKTETYLRVMKCRRFGEASCAF
Regarding B1, the “potency of GH standard preparation” value in data set [1] was 1.4 IU/mg protein.
